Patent publication US20230203156A1, “ANTI-MDR1 ANTIBODIES AND USES THEREOF” (KENJOCKETY BIOTECHNOLOGY, INC., priority 2020, published 2023)

Key:
[1] = molecular target: T1, human MDR1 extracellular loops 1 and 4 (ECD1, ECD4) (Homo sapiens, UniProt P08183); experiment: Epitope mapping with mutant human MDR1 expressed on 293T cells (flow cytometry); format: binding; settings: extracellular loop 1 and extracellular loop 4
T1 construct: FLAG (C); expressed in transfected cells; host or cells: 293T
From the text: To determine binding of anti-MDR1 mAbs listed in Table 2 to the two major extracellular loops 1 and 4 of MDR1, various mutations were constructed to alter or substitute these two loops. To examine binding to cynomolgus extracellular loops, the extracellular loop 1 and/or loop 4 of cynomolgus MDR1 were grafted (with a C-terminal FLAG tag) to substitute for the human loops in the human MDR1 using standard techniques. To examine binding dependence on the normal human loops, MDR1 variants with deletion 79-102 and deletion 82-99 in loop 1 were also generated. Loop 1 is also referred to as ECD1. Loop 4 is also referred to as ECD4. These mutant MDR1 efflux pump variants were expressed on 293T cells using standard methods to generate cells that could be used to distinguish binding of various anti-MDR1 mAbs. The different cells were incubated with different anti-MDR1 mAbs for about 1 hour at 4° C. The cells were washed twice with FACS buffer (PBS containing 0.5% BSA). Alexa647 labeled goat anti-human antibody was added as a secondary antibody, and the samples were incubated on ice for another 1 hour. Samples were washed again and analyzed by flow cytometry.
FIG. 9 summarizes the findings from preliminary epitope mapping using mutant human MDR1. […] For example, anti-MDR1 mAb B1.129 requires ECD1 and ECD4 for binding to human MDR1. All of the anti-MDR1 antibodies contact ECD4. […] ECD1 refers to the first extracellular domain of human ABCB1, ECD4 refers to the fourth extracellular domain of human ABCB1 and “others” refers to the remainder of the extracellular domains 2-3 and 5-6 of human ABCB1. Only binding to ECD1 and ECD4 was tested.

[2] = test system: A2780 ADR ovarian carcinoma; experiment: A2780 ADR drug-resistant ovarian carcinoma model in nude mice; format: in vivo; settings: for tumor volume, single agent: antibody as a single agent; for tumor volume, in combination with paclitaxel: antibody plus paclitaxel
Procedure: Anti-ABCB1 antibodies B1.129, B1.261, B1.223, B1.225, B1.188, B1.28, and B1.226 were tested for effect on growth of tumors in immunodeficient mice. The following cancer cell lines were used for generating tumor models.
A2780 ADR: The adriamycin-resistant cell line A2780ADR has been developed by exposure of the parent A2780 cell line (Sigma catalogue no. 93112519) to adriamycin. A2780ADR is cross-resistant to melphalan and vinblastine. To retain resistance adriamycin has to be added to the media. The cells grow as a monolayer and in suspension in spinner cultures and are tumorigenic in immune deficient mice. Together with the cisplatin-resistant variant A2780cis these lines only differ in their exposure to a single drug and should facilitate the search for molecular changes responsible for the expression of pleiotropic drug resistance in human ovarian cancer.
Nude mice were implanted with A2780 ADR cells to model ovarian carcinoma. Anti-B1 monoclonal antibodies are efficacious in A2780 ADR ovarian carcinoma model in nude mice.

B1: B1-open.273(A): anti-MDR1 antibody, Mouse; VH SEQ ID NO:155, VL SEQ ID NO:159 (antibody, listed as Mus musculus, V domains shown)
VH: QVQLQQSGPELVKTGASVKISCKASGYSFSNYYIHWVKQSHGKSLEWIGFISCYNGATFYNQKFKGKATFTVDTSSSTAYMKFNSLTFEDSAVYYCARLPIQFGNFYPMDYWGQGTSVTVSS
VL: QIVLTQSPAIMSASLGERVTMTCTASSSVSSSYLHWYQQKPGSSPKLWIYSTSNLASGVPARFSGSGSGTSYSLTISSMEAEDAATYYCHQYHRSPPTFGAGTKLELK
Q: Which “epitope on human MDR1” value [1] does the source give for B1 here?
A: bind to an epitope comprising extracellular loop 1 and extracellular loop 4

B2: B1.236: anti-MDR1 antibody, Mouse; VH SEQ ID NO:115, VL SEQ ID NO:116 (antibody, listed as Mus musculus, V domains shown)
VH: EAQLVESGGALVKPGGSLKLSCSASGFTFSNYAMSWVRQTPEKRLEWVATISSGGTNTYYPGSVKGRFTIARDNAKNTLYLLMSSLRSEDTALYFCAKYSNLAWFASWGQGTLVTVSA
VL: QIVLTQSPLSLPVSLGDQASISCRSSQSLVHSIGNTYLEWYLQKPGQSPKFLISKVSNRFSGVPDRFSGSGSGTDFTLKISRVEAEDLGIYYCFQGSHVPYTFGGGTKLEIK
Q: Which “epitope on human MDR1” value [1] does the source give for B2 here?
A: bind to an epitope comprising extracellular loop 1 and extracellular loop 4

B3: B1.188: anti-MDR1 antibody, Mouse; VH SEQ ID NO:66, VL SEQ ID NO:79 (antibody, listed as Mus musculus, V domains shown)
VH: EVMLVESGGALVKPGGSLKLSCAASGFTFSNYAMSWVRQTPEKRLEWVATISSGGSYTYYPDSVKGRFTISRDNARNTLYLQMSSLRSEDTAMYYCARGYGNFAWFAYWGQGTLVTVSA
VL: DIQMTQSPLSLPVSLGDQASISCRSSQSIVHSTGNTYLEWYLQKPGQSPKLLIYKVSNRFSGVPDRFSGSGSGTDFTLKISRVEAEDLGVYYCFQGSHVPFTFGSGTKLEIK
Q: How did the “tumor volume, single agent” value [2] turn out when B3 was run?
A: decreased tumor volume

Q: And the “tumor volume, in combination with paclitaxel” value (from here on “tumor volume, in combination”) [2]?
A: decreased tumor volume

B4: B1.226: anti-MDR1 antibody, Mouse; VH SEQ ID NO:112, VL SEQ ID NO:113 (antibody, listed as Mus musculus, V domains shown)
VH: EVQLVESGGALVKPGGSLKLSCAASGFTFSNYAMSWVRQTPETRLEWVATISSGGSYTYYPDSVKGRFTISRDNAKNTLYLQMSSLRSEDTALYYCARYSNLAWFAYWGQGTLVTVSA
VL: DVVMTQTPLSLPVSLGDQASISCRSSQSIVHSNGNTYLDWYLQKPGQSPKFMIYKVSNRFSGVPDRFSGSGSGTDFTLKISRVEAEDLGVYYCFQGSHVPYTFGGGTKLEIK
Q: With B4 as the molecule, how does the “tumor volume, single agent” value [2] read?
A: decreased tumor volume

Q: And the “tumor volume, in combination” value [2]?
A: decreased tumor volume

B5: B1.198: anti-MDR1 antibody, Mouse; VH SEQ ID NO:88, VL SEQ ID NO:90 (antibody, listed as Mus musculus, V domains shown)
VH: EVQLVESGGALVKPGGSLKLSCAASGFTFSNYAMSWVRQTPEKRLEWVATISSGGSYTYYPDSVKGRFTISRDNAKNTLYLQMSSLRSEDTALYYCAKYSNYGRFAYWGQGTLVTVSA
VL: DVVMTQTPLSLPVSLGDQASISCRSSQSIVDSNGNTYLEWYLQKPGQSPKLLIYKVSNRFFGVPDRFSGSGSGTDFTLKISRVEAEDLGVYYCFQGSHVPYTFGGGTKLEIK
Q: Which “epitope on human MDR1” value [1] does the source give for B5 here?
A: bind to an epitope comprising extracellular loop 1 and extracellular loop 4

B6: B1.201: anti-MDR1 antibody, Mouse; VH SEQ ID NO:92, VL SEQ ID NO:95 (antibody, listed as Mus musculus, V domains shown)
VH: EVQLVESGGALMKPGGSLKFSCAASGFTFTNYAMSWVRQTPEKRLEWVATISSGGSNTYYSDSVKGRFTISRDNAKTTLYLQMSGLRSEDTALYYCAKFSNFGRFASWGQGTLVTVSA
VL: DVLMTQTPLSLPVSLGDQASISCRFSQSIVHSSGNTYLEWYLQKPGQSPRLLIYKVSNRFFGVPDRISGSGSGTDFTLRISRVEAEDLGVYYCFQGSHVPYTFGGGTKLEIK
Q: For B6, which “epitope on human MDR1” value [1] is on record?
A: bind to an epitope comprising extracellular loop 1 and extracellular loop 4

B7: B1.207: anti-MDR1 antibody, Mouse; VH SEQ ID NO:74, VL SEQ ID NO:76 (antibody, listed as Mus musculus, V domains shown)
VH: GVQLVESGGALVKPGGSLKLSCAASGFTFSNYAMSWVRQTPEKRLEWVATISSGGSYTYYPDSVKGRFTISRDNAKTTLYLQMSGLRSEDTALYYCAKYSNYGRFASWGQGTLVTVST
VL: DVLMTQTPLSLPVSLGDQASISCRSSQSIVHSSGNTYLEWYLQKPGQSPRLLIYKVSNRFFGVPDRISGSGSGTDFTLRISRVEAEDLGVYYCFQGSHVPYTFGGGTKLEIK
Q: For B7, which “epitope on human MDR1” value [1] is on record?
A: bind to an epitope comprising extracellular loop 1 and extracellular loop 4

B8: B1.184: anti-MDR1 antibody, Mouse; VH SEQ ID NO:74, VL SEQ ID NO:76 (antibody, listed as Mus musculus, V domains shown)
VH: GVQLVESGGALVKPGGSLKLSCAASGFTFSNYAMSWVRQTPEKRLEWVATISSGGSYTYYPDSVKGRFTISRDNAKTTLYLQMSGLRSEDTALYYCAKYSNYGRFASWGQGTLVTVST
VL: DVLMTQTPLSLPVSLGDQASISCRSSQSIVHSSGNTYLEWYLQKPGQSPRLLIYKVSNRFFGVPDRISGSGSGTDFTLRISRVEAEDLGVYYCFQGSHVPYTFGGGTKLEIK
Q: How did the “epitope on human MDR1” value [1] turn out when B8 was run?
A: bind to an epitope comprising extracellular loop 1 and extracellular loop 4

B9: B1.219: anti-MDR1 antibody, Mouse; VH SEQ ID NO:99, VL SEQ ID NO:101 (antibody, listed as Mus musculus, V domains shown)
VH: EVQLVESGGALVKPGGSLKLSCAASGFTFSNYAMSWVRQTPEKRLEWVATISSVGSYTYYPDSVKGRFTISRDNAKTTLYLQMSGLRSEDTALYYCAKYSNYGRFASWGQGTLVTVST
VL: DVLMTQTPLSLPASLGDQASISCRSSQSIVHSSGNTYLEWYLQKPGQSPRLLIYKVSNRFFGVPDRISGSGSGTDFTLRISRVEAEDLGVYYCFQGSHVPYTFGGGTKLEIE
Q: Which “epitope on human MDR1” value [1] does the source give for B9 here?
A: bind to an epitope comprising extracellular loop 1 and extracellular loop 4

B10: B1.225: anti-MDR1 antibody, Mouse; VH SEQ ID NO:105, VL SEQ ID NO:109 (antibody, listed as Mus musculus, V domains shown)
VH: EVQLVESGGALVKPGGSLKLSCAASGFTFSNYGMSWVRQTPEKRLEWVATISSGGSYTYYPDTVKGRFTISRDNAKNTLHLQMSSLRSEDTALYYCARRGTNDAWFGYWGQGTLVTVSA
VL: DVVMTQTPLSLPVSLGDQASISCRFSQSIVHSNGNTYLEWYLQKPGQSPKLLIYKVSNRFFGVPDRFSGSGSGTDFTLKISRVEAEDLGVYFCFQGSHVPQYTFGGGTKLEIK
Q: With B10 as the molecule, how does the “tumor volume, single agent” value [2] read?
A: decreased tumor volume

Q: What about the “tumor volume, in combination” value [2] of the same molecule?
A: decreased tumor volume
